Measured values reported in publication PMC7877911 (eLife, 2021).
One block for each compound: values may come before it.

Legend:
[1] = target: Svi3-3_d19 E69Q (environmental phage); experiment: SEC; HiLoad 16/60 Superdex 75 pg, 25 mM Tris-HCl, 150 mM NaCl, pH 8.0; His-tagged protein eluted from Ni Sepharose
[2] = target: His6-tagged Svi3-3_d19 (environmental phage); experiment: as above
[3] = target: His6-tagged Svi3-3_d19 (environmental phage); experiment: SEC-SAXS; His6-tagged Svi3-3_d19 at 10-13 mg/ml with and without 5 mM SAM; Shodex KW403 column, 25 mM Tris-HCl pH 8.0, 150 mM NaCl
[4] = target: Svi3-3_d19 (N-terminally truncated 146 amino acid construct of SAMase Svi3-3, hexahistidine tag removed) (environmental phage); experiment: crystal structure; Svi3-3_d19 (10 mg/ml) crystallised with 5 mM SAM (product MTA bound), with 5 mM SAH, or without ligand; sitting drop, 293 K, 0.4-0.6 M ammonium phosphate; space group F4(1)32, one monomer in the asymmetric unit, trimer around the threefold crystallographic axis
T3 SAMase = T3 SAMase (Enterobacteria phage T3, UniProt P07693); conditions: 2 mM SAM, 50 mM NaPi pH 7.4, 25°C
[5] = target: Svi3-3_d19 E69A (environmental phage); experiment: SEC; HiLoad 16/60 Superdex 75 pg, 25 mM Tris-HCl, 150 mM NaCl, pH 8.0; His-tagged protein eluted from Ni Sepharose
[6] = target: Svi3-3_d19 E105Q (environmental phage); experiment: as above

Chain of T3 SAMase (P07693 whole entry): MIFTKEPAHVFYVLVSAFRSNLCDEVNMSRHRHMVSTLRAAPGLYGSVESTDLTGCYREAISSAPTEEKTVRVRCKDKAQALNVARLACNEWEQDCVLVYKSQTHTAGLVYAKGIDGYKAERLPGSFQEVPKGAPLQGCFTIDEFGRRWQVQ

stoichiometry N [1]: 3
Compound: Svi3-3_d19 E69Q (enzyme)

stoichiometry N [5]: 3
Compound: Svi3-3_d19 E69A (enzyme)

Continued, compound first:

Compound: His6-tagged Svi3-3_d19 (enzyme)
stoichiometry N [2]: 3
stoichiometry N [3]: 3

Compound: Svi3-3_d19 (N-terminally truncated 146 amino acid construct of SAMase Svi3-3, hexahistidine tag removed) (enzyme)
stoichiometry N [4]: 3

Compound: C[S+](CC[C@H](N)C(=O)O)C[C@H]1O[C@@H](n2cnc3c(N)ncnc32)[C@H](O)[C@@H]1O (stereo partly drawn) [SAM, S-(5’-Adenosyl)-L-methionine]
TLC of reaction products; ion exchange chromatography (T3 SAMase): The same assay was performed with T3 SAMase and Orf1

Compound: Svi3-3_d19 E105Q (enzyme)
stoichiometry N [6]: 3
